Test results from paper PMC3274598 (Analytical Biochemistry, 2011).

T1: ATRIP peptide (Homo sapiens, UniProt Q8WXE1)
T1 chain: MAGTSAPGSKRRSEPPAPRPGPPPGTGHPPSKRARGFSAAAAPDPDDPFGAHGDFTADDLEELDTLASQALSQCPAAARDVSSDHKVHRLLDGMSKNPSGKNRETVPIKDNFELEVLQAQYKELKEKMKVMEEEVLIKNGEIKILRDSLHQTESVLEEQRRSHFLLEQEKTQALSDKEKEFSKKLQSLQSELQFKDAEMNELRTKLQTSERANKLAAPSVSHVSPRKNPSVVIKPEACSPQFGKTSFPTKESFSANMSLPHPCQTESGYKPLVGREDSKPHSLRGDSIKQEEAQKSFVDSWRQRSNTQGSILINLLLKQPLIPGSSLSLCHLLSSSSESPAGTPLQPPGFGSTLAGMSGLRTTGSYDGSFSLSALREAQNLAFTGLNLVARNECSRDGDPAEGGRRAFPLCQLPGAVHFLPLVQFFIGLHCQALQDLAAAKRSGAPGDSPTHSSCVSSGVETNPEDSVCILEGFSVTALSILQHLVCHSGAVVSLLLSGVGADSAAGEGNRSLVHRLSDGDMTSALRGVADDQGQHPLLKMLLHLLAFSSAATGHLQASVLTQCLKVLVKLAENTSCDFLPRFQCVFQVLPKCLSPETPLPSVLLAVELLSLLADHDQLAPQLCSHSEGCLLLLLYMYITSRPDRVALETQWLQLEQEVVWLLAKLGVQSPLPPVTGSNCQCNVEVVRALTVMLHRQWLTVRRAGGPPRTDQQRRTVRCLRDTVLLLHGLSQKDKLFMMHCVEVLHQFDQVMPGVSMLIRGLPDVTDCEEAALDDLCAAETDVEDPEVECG

T2: RAD9 peptide (Homo sapiens, UniProt Q99638)
T2 chain: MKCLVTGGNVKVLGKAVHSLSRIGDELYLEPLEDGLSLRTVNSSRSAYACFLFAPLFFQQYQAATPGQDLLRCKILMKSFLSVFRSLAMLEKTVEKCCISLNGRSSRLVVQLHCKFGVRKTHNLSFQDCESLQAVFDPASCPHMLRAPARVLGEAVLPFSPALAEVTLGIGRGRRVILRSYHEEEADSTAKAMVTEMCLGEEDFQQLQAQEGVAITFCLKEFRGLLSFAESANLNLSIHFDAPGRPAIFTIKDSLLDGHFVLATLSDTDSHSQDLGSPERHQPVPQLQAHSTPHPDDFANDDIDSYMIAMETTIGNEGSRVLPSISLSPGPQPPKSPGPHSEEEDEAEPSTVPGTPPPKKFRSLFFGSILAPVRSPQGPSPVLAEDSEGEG


Key:
ATRIP peptide = molecular target: T1, ATRIP peptide; test: NMR
RAD9 peptide = molecular target: T2, RAD9 peptide; test: anisotropy
[1] = molecular target: N-terminal OB-fold domain of RPA70 (RPA70N) (human, UniProt P27694 1-120); test: fluorescence polarisation

Kd (ATRIP peptide)	Kd (RAD9 peptide)	IC50 [1]	Binder
48 µM	51 µM	–	RPA70N 70N (protein) MVGQLSEGAIAAIMQKGDTNIKPILQVINIRPITTGNSPPRYRLLMSDGLNTLSSFMLATQLNPLVEEEQLSSNCVCQIHRFIVNTLKDGRRVVILMELEVLKSAEAVGVKIGNPVPYNE
–	–	102 ± 13.6 µM	Ac-DFANDDIDSYMIAME-NH2 [RAD9 peptide (Ac-DFANDDIDSYMIAME-NH2)]
